PMC9482650, “Quantitative fragmentomics allow affinity mapping of interactomes” (Nature Communications, 2022)

T1: GRIP1_2, Q9Y3R0
T1 sequence (Q9Y3R0 145-248, limits assumed, looked up): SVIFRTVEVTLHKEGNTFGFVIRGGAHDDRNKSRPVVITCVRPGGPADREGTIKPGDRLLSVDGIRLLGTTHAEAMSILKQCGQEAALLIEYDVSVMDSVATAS

T2: GRIP1_5, Q9Y3R0
T2 sequence (Q9Y3R0 568-668, limits assumed, looked up): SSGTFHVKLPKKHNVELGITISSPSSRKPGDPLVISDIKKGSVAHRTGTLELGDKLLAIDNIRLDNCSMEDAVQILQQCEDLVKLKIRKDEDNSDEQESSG

T3: RADIL, Q96JH8
T3 sequence (Q96JH8 971-1071, limits assumed, looked up): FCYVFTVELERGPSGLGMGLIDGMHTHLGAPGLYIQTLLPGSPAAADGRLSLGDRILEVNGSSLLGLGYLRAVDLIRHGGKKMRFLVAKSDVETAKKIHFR

T4: LIN7A, O14910
T4 sequence (O14910 103-200, limits assumed, looked up): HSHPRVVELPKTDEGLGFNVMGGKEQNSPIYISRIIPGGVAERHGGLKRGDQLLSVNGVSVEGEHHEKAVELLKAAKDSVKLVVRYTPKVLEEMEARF

T5: PDZRN3_1, Q9UPQ7
T5 sequence (Q9UPQ7 244-349, limits assumed, looked up): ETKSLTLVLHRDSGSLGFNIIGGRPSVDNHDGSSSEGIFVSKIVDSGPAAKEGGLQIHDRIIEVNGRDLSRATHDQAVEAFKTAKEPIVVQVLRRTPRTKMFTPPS

T6: RHPN1, Q8TCX5
T6 sequence (Q8TCX5 508-602, limits assumed, looked up): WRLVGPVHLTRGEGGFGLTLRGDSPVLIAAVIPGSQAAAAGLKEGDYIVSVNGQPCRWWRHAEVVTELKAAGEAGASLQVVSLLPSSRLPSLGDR

T7: DFNB31_3, Q9P202
T7 sequence (Q9P202 811-907, limits assumed, looked up): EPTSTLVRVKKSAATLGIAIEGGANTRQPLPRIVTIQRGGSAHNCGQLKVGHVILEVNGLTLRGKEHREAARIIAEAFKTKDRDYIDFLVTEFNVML

T8: RAPGEF6, Q8TEU7
T8 sequence (Q8TEU7 525-625, limits assumed, looked up): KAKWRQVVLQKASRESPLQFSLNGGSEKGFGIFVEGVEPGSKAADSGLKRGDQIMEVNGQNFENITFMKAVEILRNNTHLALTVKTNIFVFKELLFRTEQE

T9: GRIP1_3, Q9Y3R0
T9 sequence (Q9Y3R0 247-346, limits assumed, looked up): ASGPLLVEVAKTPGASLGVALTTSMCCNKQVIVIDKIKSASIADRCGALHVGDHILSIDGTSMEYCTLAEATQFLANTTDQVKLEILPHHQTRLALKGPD

T10: DVL3, Q92997
T10 sequence (Q92997 244-331, limits assumed, looked up): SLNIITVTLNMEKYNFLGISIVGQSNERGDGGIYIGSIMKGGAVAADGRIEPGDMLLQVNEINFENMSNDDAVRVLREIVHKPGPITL


Experiments:
Experiment in all cases: holdup assay
Set-up in all cases: key: below the threshold = too weak to quantify, mostly under pKd 3.1 to 4
Details in all cases: plain residues with an end cap or a label only (N-terminal biotin on a linker: ado-ado)
GRIP1_2, Q9Y3R0 = molecular target: T1, GRIP1_2, Q9Y3R0
GRIP1_5, Q9Y3R0 = molecular target: T2, GRIP1_5, Q9Y3R0
RADIL, Q96JH8 = molecular target: T3, RADIL, Q96JH8
GORASP1, Q9BQQ3 = molecular target: GORASP1, Q9BQQ3
LIN7A, O14910 = molecular target: T4, LIN7A, O14910
PDZRN3_1, Q9UPQ7 = molecular target: T5, PDZRN3_1, Q9UPQ7
DLG4_2, P78352 = molecular target: DLG4_2, P78352
LNX1_1, Q8TBB1 = molecular target: LNX1_1, Q8TBB1
RHPN1, Q8TCX5 = molecular target: T6, RHPN1, Q8TCX5
NHERF4_2, Q86UT5 = molecular target: NHERF4_2, Q86UT5
SCRIB_1, Q14160 = molecular target: SCRIB_1, Q14160
Inadl_10, Q8NI35 = molecular target: Inadl_10, Q8NI35
DFNB31_3, Q9P202 = molecular target: T7, DFNB31_3, Q9P202
GIPC2, Q8TF65 = molecular target: GIPC2, Q8TF65
GORASP2, Q9H8Y8 = molecular target: GORASP2, Q9H8Y8
PDLIM1, O00151 = molecular target: PDLIM1, O00151
RAPGEF6, Q8TEU7 = molecular target: T8, RAPGEF6, Q8TEU7
MAST2, Q6P0Q8 = molecular target: MAST2, Q6P0Q8
TJP2_1, Q9UDY2 = molecular target: TJP2_1, Q9UDY2
DLG4_3, P78352 = molecular target: DLG4_3, P78352
NHERF4_4, Q86UT5 = molecular target: NHERF4_4, Q86UT5
HTRA1, Q92743 = molecular target: HTRA1, Q92743
MAGI1_1, Q96QZ7 = molecular target: MAGI1_1, Q96QZ7
LNX1_3, Q8TBB1 = molecular target: LNX1_3, Q8TBB1
PDZRN4_1, Q6ZMN7 = molecular target: PDZRN4_1, Q6ZMN7
GRIP1_3, Q9Y3R0 = molecular target: T9, GRIP1_3, Q9Y3R0
DVL3, Q92997 = molecular target: T10, DVL3, Q92997

Chain of PDZRN4_1, Q6ZMN7 (Q6ZMN7 213-318): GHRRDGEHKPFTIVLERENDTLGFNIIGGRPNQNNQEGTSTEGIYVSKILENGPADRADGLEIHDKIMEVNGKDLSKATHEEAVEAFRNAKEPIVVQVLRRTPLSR
Chain of NHERF4_2, Q86UT5 (Q86UT5 220-308): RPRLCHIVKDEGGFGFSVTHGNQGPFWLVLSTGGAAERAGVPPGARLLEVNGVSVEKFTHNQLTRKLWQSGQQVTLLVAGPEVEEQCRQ
Chain of DLG4_3, P78352 (P78352 306-403): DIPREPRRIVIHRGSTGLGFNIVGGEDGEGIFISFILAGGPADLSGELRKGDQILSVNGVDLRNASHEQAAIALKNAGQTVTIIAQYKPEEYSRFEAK
Chain of SCRIB_1, Q14160 (Q14160 718-814): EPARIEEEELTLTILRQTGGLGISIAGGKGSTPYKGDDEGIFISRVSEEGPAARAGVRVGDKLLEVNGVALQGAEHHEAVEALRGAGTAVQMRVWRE
Chain of HTRA1, Q92743 (Q92743 360-477): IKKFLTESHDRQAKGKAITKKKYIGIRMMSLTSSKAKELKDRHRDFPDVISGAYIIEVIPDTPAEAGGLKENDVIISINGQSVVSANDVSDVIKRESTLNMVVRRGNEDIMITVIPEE
Chain of PDLIM1, O00151 (O00151 1-87): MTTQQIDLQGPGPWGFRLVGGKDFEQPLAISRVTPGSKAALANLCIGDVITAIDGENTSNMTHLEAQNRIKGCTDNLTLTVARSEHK
Chain of MAST2, Q6P0Q8 (Q6P0Q8 1099-1202): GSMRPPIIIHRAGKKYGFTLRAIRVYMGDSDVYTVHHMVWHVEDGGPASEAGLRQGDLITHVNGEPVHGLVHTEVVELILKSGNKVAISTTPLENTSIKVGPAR
Chain of DLG4_2, P78352 (P78352 155-259): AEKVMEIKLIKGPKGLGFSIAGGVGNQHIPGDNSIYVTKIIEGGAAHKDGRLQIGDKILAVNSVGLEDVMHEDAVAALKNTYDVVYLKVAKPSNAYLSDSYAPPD
Chain of LNX1_1, Q8TBB1 (Q8TBB1 261-371): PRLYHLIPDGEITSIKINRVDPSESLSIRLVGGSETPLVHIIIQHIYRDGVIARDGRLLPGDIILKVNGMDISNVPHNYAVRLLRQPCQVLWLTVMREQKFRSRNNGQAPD
Chain of MAGI1_1, Q96QZ7 (Q96QZ7 1-106): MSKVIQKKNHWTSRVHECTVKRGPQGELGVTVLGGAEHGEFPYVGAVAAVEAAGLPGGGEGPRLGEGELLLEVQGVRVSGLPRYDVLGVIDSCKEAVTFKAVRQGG
Chain of NHERF4_4, Q86UT5 (Q86UT5 464-550): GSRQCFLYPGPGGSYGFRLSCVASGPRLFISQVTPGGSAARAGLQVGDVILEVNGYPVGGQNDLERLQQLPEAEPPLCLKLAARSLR
Chain of TJP2_1, Q9UDY2 (Q9UDY2 24-128): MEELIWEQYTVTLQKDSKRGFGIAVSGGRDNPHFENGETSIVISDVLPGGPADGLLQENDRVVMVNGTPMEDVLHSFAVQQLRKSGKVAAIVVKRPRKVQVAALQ
Chain of LNX1_3, Q8TBB1 (Q8TBB1 500-596): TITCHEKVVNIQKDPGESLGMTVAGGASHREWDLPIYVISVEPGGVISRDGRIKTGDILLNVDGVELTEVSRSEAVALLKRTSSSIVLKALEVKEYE
Chain of GIPC2, Q8TF65 (Q8TF65 112-203): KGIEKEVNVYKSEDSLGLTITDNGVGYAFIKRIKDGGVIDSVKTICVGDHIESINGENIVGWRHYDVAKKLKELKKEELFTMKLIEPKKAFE
Chain of Inadl_10, Q8NI35 (Q8NI35 1673-1763): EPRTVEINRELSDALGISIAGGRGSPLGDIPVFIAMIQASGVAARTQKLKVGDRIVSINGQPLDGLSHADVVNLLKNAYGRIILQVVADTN
Chain of GORASP1, Q9BQQ3 (Q9BQQ3 1-208): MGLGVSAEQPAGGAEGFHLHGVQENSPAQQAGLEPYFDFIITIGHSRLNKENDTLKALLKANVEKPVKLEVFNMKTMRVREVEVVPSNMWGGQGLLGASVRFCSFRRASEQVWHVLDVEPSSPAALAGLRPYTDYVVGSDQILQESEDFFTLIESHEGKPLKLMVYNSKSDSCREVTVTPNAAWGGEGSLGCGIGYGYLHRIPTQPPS

Binder	pKd (GRIP1_2, Q9Y3R0)	pKd (GRIP1_5, Q9Y3R0)	pKd (RADIL, Q96JH8)	pKd (GORASP1, Q9BQQ3)	pKd (LIN7A, O14910)	pKd (PDZRN3_1, Q9UPQ7)	pKd (DLG4_2, P78352)	pKd (LNX1_1, Q8TBB1)	pKd (RHPN1, Q8TCX5)	pKd (NHERF4_2, Q86UT5)	pKd (SCRIB_1, Q14160)	pKd (Inadl_10, Q8NI35)	pKd (DFNB31_3, Q9P202)	pKd (GIPC2, Q8TF65)	pKd (GORASP2, Q9H8Y8)	pKd (PDLIM1, O00151)	pKd (RAPGEF6, Q8TEU7)	pKd (MAST2, Q6P0Q8)	pKd (TJP2_1, Q9UDY2)	pKd (DLG4_3, P78352)	further results
EKKTLIGIKL [GOT1L1, Q8NHS2]	below the threshold	below the threshold	below the threshold	below the threshold	below the threshold	below the threshold	below the threshold	below the threshold	below the threshold	below the threshold	below the threshold	below the threshold	4.02	below the threshold	below the threshold	below the threshold	below the threshold	4.66	below the threshold	below the threshold	pKd (NHERF4_4, Q86UT5): 3.5; pKd (HTRA1, Q92743): 4.48; pKd (MAGI1_1, Q96QZ7): below the threshold; pKd (LNX1_3, Q8TBB1): below the threshold; pKd (PDZRN4_1, Q6ZMN7): below the threshold; pKd (GRIP1_3, Q9Y3R0): below the threshold; pKd (DVL3, Q92997): below the threshold
PRAEAEDSFL [PDGFRB, P09619]	below the threshold	3.53	below the threshold	3.57	3.56	3.7	3.48	3.83	4.23	3.66	3.76	below the threshold	below the threshold	3.8	below the threshold	3.54	below the threshold	5.62	below the threshold	below the threshold	pKd (NHERF4_4, Q86UT5): 4.03; pKd (HTRA1, Q92743): 4.27; pKd (MAGI1_1, Q96QZ7): 3.58; pKd (LNX1_3, Q8TBB1): below the threshold; pKd (PDZRN4_1, Q6ZMN7): 3.69; pKd (GRIP1_3, Q9Y3R0): below the threshold; pKd (DVL3, Q92997): below the threshold
EALLQMESVA [CAVIN3, Q969G5]	below the threshold	below the threshold	below the threshold	below the threshold	below the threshold	below the threshold	below the threshold	3.81	3.69	below the threshold	3.56	below the threshold	below the threshold	3.97	below the threshold	below the threshold	below the threshold	below the threshold	below the threshold	below the threshold	pKd (NHERF4_4, Q86UT5): below the threshold; pKd (HTRA1, Q92743): 3.93; pKd (MAGI1_1, Q96QZ7): below the threshold; pKd (LNX1_3, Q8TBB1): below the threshold; pKd (PDZRN4_1, Q6ZMN7): below the threshold; pKd (GRIP1_3, Q9Y3R0): below the threshold; pKd (DVL3, Q92997): below the threshold
IKAIVDLTGL [TRAF2, Q12933]	below the threshold	below the threshold	below the threshold	below the threshold	below the threshold	below the threshold	below the threshold	below the threshold	below the threshold	below the threshold	below the threshold	below the threshold	below the threshold	below the threshold	below the threshold	below the threshold	below the threshold	5.48	below the threshold	below the threshold	pKd (NHERF4_4, Q86UT5): below the threshold; pKd (HTRA1, Q92743): below the threshold; pKd (MAGI1_1, Q96QZ7): below the threshold; pKd (LNX1_3, Q8TBB1): below the threshold; pKd (PDZRN4_1, Q6ZMN7): below the threshold; pKd (GRIP1_3, Q9Y3R0): below the threshold; pKd (DVL3, Q92997): below the threshold
